# Assay results taken from patent US12552834 (MIT, dated 2026).
# Residue numbers refer to the chain shown, from its start.
# B1: LPP Minimal peptide (peptide)
# peptide: MAGGLNDIFEAQKIEWHEDTGGSSHHHHHHGSGSGSDSEVNQEAKPEVKPEVKPETHINLKVSDGSSEIFFKIKKTTPLRRLMEAFAKRQGKEMDSLTFLYDGIEIQADQTPEDLDMEDNDIIEAHREQIGGSGSGGDFLPPPPPPLGGGSGSGGGSGSFPPPPPL
# modifications: biotinylated (BAP tag)
# notes: Engineered variant, tested as a SUMO fusion
# B2: FP8 peptide (FPPPPPPPP) (peptide)
# peptide: MAGGLNDIFEAQKIEWHEDTGGSSHHHHHHGSGSGSDSEVNQEAKPEVKPEVKPETHINLKVSDGSSEIFFKIKKTTPLRRLMEAFAKRQGKEMDSLTFLYDGIEIQADQTPEDLDMEDNDIIEAHREQIGGSGSGFPPPPPPPP
# modifications: biotinylated (BAP tag)
# notes: ABI1 truncation, tested as a SUMO fusion
# B3: FP4S4 peptide (FPPPPSSSS) (peptide)
# peptide: B2 peptide with P142S, P143S, P144S, P145S
# modifications: biotinylated (BAP tag)
# notes: Tested as a SUMO fusion
# B4: FDDFP8 peptide (peptide)
# peptide: MAGGLNDIFEAQKIEWHEDTGGSSHHHHHHGSGSGSDSEVNQEAKPEVKPEVKPETHINLKVSDGSSEIFFKIKKTTPLRRLMEAFAKRQGKEMDSLTFLYDGIEIQADQTPEDLDMEDNDIIEAHREQIGGSGSGFDDFPPPPPPPP
# modifications: biotinylated (BAP tag)
# notes: as for B2
# B5: NHSL1 Duplicated peptide (peptide)
# peptide: MAGGLNDIFEAQKIEWHEDTGGSSHHHHHHGSGSGSDSEVNQEAKPEVKPEVKPETHINLKVSDGSSEIFFKIKKTTPLRRLMEAFAKRQGKEMDSLTFLYDGIEIQADQTPEDLDMEDNDIIEAHREQIGGSGSGADRSPFLPPPPPVTDCSQGSPLPHSPVPVTDCSQGSPLPHSPVFPPPPPEAL
# modifications: biotinylated (BAP tag)
# notes: as for B1
# B6: NHSL1 FP4 1 peptide (peptide)
# peptide: MAGGLNDIFEAQKIEWHEDTGGSSHHHHHHGSGSGSDSEVNQEAKPEVKPEVKPETHINLKVSDGSSEIFFKIKKTTPLRRLMEAFAKRQGKEMDSLTFLYDGIEIQADQTPEDLDMEDNDIIEAHREQIGGSGSGADRSPFLPPPPPVTDCSQGSPLPHSPV
# modifications: biotinylated (BAP tag)
# notes: Truncation of the NHSL1 36mer that keeps the first FP4 motif, tested as a SUMO fusion
# B7: LPP FP4 1 peptide (peptide)
# peptide: MAGGLNDIFEAQKIEWHEDTGGSSHHHHHHGSGSGSDSEVNQEAKPEVKPEVKPETHINLKVSDGSSEIFFKIKKTTPLRRLMEAFAKRQGKEMDSLTFLYDGIEIQADQTPEDLDMEDNDIIEAHREQIGGSGSGKQPGGEGDFLPPPPPPLDDSSALPSISGN
# modifications: biotinylated (BAP tag)
# notes: Truncation of the LPP 36mer that keeps the first FP4 motif, tested as a SUMO fusion
# B8: NHSL1 FP4 2 peptide (peptide)
# peptide: MAGGLNDIFEAQKIEWHEDTGGSSHHHHHHGSGSGSDSEVNQEAKPEVKPEVKPETHINLKVSDGSSEIFFKIKKTTPLRRLMEAFAKRQGKEMDSLTFLYDGIEIQADQTPEDLDMEDNDIIEAHREQIGGSGSGPVTDCSQGSPLPHSPVFPPPPPEAL
# modifications: biotinylated (BAP tag)
# notes: Truncation of the NHSL1 36mer that keeps the second FP4 motif, tested as a SUMO fusion
# B9: LPP FP4 2 peptide (peptide)
# peptide: MAGGLNDIFEAQKIEWHEDTGGSSHHHHHHGSGSGSDSEVNQEAKPEVKPEVKPETHINLKVSDGSSEIFFKIKKTTPLRRLMEAFAKRQGKEMDSLTFLYDGIEIQADQTPEDLDMEDNDIIEAHREQIGGSGSGPPLDDSSALPSISGNFPPPPPL
# modifications: biotinylated (BAP tag)
# notes: Truncation of the LPP 36mer that keeps the second FP4 motif, tested as a SUMO fusion
# B10: LPP Duplicated peptide (peptide)
# peptide: MAGGLNDIFEAQKIEWHEDTGGSSHHHHHHGSGSGSDSEVNQEAKPEVKPEVKPETHINLKVSDGSSEIFFKIKKTTPLRRLMEAFAKRQGKEMDSLTFLYDGIEIQADQTPEDLDMEDNDIIEAHREQIGGSGSGKQPGGEGDFLPPPPPPLDDSSALPSISGNDDSSALPSISGNFPPPPPL
# modifications: biotinylated (BAP tag)
# notes: as for B1
# B11: Minimum General peptide (peptide)
# peptide: MAGGLNDIFEAQKIEWHEDTGGSSHHHHHHGSGSGSDSEVNQEAKPEVKPEVKPETHINLKVSDGSSEIFFKIKKTTPLRRLMEAFAKRQGKEMDSLTFLYDGIEIQADQTPEDLDMEDNDIIEAHREQIGGSGSGDFLPPPPGGGGGGSGSGGGSGSFPPPPGG
# modifications: biotinylated (BAP tag)
# notes: Engineered peptide, tested as a SUMO fusion
# B12: FYB1 36-mer peptide (peptide)
# peptide: MAGGLNDIFEAQKIEWHEDTGGSSHHHHHHGSGSGSDSEVNQEAKPEVKPEVKPETHINLKVSDGSSEIFFKIKKTTPLRRLMEAFAKRQGKEMDSLTFLYDGIEIQADQTPEDLDMEDNDIIEAHREQIGGSGSGSGSGGIFPPPPDDDIYDGIEEEDADDGFPAPPKQLD
# modifications: biotinylated (BAP tag)
# notes: Tested as a biotinylated BAP-6xHis-SUMO-peptide fusion
# B13: TJAP1 36-mer peptide (peptide)
# peptide: MAGGLNDIFEAQKIEWHEDTGGSSHHHHHHGSGSGSDSEVNQEAKPEVKPEVKPETHINLKVSDGSSEIFFKIKKTTPLRRLMEAFAKRQGKEMDSLTFLYDGIEIQADQTPEDLDMEDNDIIEAHREQIGGSGSGPEEELPLPAFEKLNPYPTPSPPHPLYPGRRVIEFSE
# modifications: biotinylated (BAP tag)
# notes: as for B12
# B14: Zyxin 36-mer peptide (peptide)
# peptide: MAGGLNDIFEAQKIEWHEDTGGSSHHHHHHGSGSGSDSEVNQEAKPEVKPEVKPETHINLKVSDGSSEIFFKIKKTTPLRRLMEAFAKRQGKEMDSLTFLYDGIEIQADQTPEDLDMEDNDIIEAHREQIGGSGSGALGGAFPPPPPPIEESFPPAPLEEEIFPSPPPPPEE
# modifications: biotinylated (BAP tag)
# notes: as for B12
# B15: FHOD1 peptide (peptide)
# peptide: MAGGLNDIFEAQKIEWHEDTGGSSHHHHHHGSGSGSDSEVNQEAKPEVKPEVKPETHINLKVSDGSSEIFFKIKKTTPLRRLMEAFAKRQGKEMDSLTFLYDGIEIQADQTPEDLDMEDNDIIEAHREQIGGSGSGSVPPPPPLPPPPPIKGPFPPPPPLPLAAPLPHSVPD
# modifications: biotinylated (BAP tag)
# notes: as for B12
# B16: SHROOM3 36-mer peptide (peptide)
# peptide: MAGGLNDIFEAQKIEWHEDTGGSSHHHHHHGSGSGSDSEVNQEAKPEVKPEVKPETHINLKVSDGSSEIFFKIKKTTPLRRLMEAFAKRQGKEMDSLTFLYDGIEIQADQTPEDLDMEDNDIIEAHREQIGGSGSGVYSMDDFPPPPPHTVCEAQLDSEDPEGPRPSFNKLS
# modifications: biotinylated (BAP tag)
# notes: as for B12
# B17: ABI3 36-mer peptide (peptide)
# peptide: MAGGLNDIFEAQKIEWHEDTGGSSHHHHHHGSGSGSDSEVNQEAKPEVKPEVKPETHINLKVSDGSSEIFFKIKKTTPLRRLMEAFAKRQGKEMDSLTFLYDGIEIQADQTPEDLDMEDNDIIEAHREQIGGSGSGSPPPPDEELPLPLDLPPPPPLDGDELGLPPPPPGFG
# modifications: biotinylated (BAP tag)
# notes: as for B12
# B18: PCARE 36-residue peptide (PCARE813-848) (peptide)
# peptide: MAGGLNDIFEAQKIEWHEDTGGSSHHHHHHGSGSGSDSEVNQEAKPEVKPEVKPETHINLKVSDGSSEIFFKIKKTTPLRRLMEAFAKRQGKEMDSLTFLYDGIEIQADQTPEDLDMEDNDIIEAHREQIGGSGSGAAKSEELSCEMEGNLEHLPPPPMEVLMDKSFASLES
# modifications: biotinylated (BAP tag)
# notes: Tested in BLI as a biotinylated BAP-6xHis-SUMO-peptide fusion; also called PCARE 36-mer
# B19: TNK2 36-mer peptide (peptide)
# peptide: MAGGLNDIFEAQKIEWHEDTGGSSHHHHHHGSGSGSDSEVNQEAKPEVKPEVKPETHINLKVSDGSSEIFFKIKKTTPLRRLMEAFAKRQGKEMDSLTFLYDGIEIQADQTPEDLDMEDNDIIEAHREQIGGSGSGTPVVDWDARPLPPPPAYDDVAQDEDDFEICSINSTL
# modifications: biotinylated (BAP tag)
# notes: as for B12
# B20: FBLIM1 36-mer peptide (peptide)
# peptide: MAGGLNDIFEAQKIEWHEDTGGSSHHHHHHGSGSGSDSEVNQEAKPEVKPEVKPETHINLKVSDGSSEIFFKIKKTTPLRRLMEAFAKRQGKEMDSLTFLYDGIEIQADQTPEDLDMEDNDIIEAHREQIGGSGSGPPVLDGEDVLPDLDLLPPPPPPPPVLLPSEEEAPAP
# modifications: biotinylated (BAP tag)
# notes: as for B12
# B21: SYNPO2 36-mer peptide (peptide)
# peptide: MAGGLNDIFEAQKIEWHEDTGGSSHHHHHHGSGSGSDSEVNQEAKPEVKPEVKPETHINLKVSDGSSEIFFKIKKTTPLRRLMEAFAKRQGKEMDSLTFLYDGIEIQADQTPEDLDMEDNDIIEAHREQIGGSGSGKSPIADFPAPPPYSAVTPPPDAFSRGVSSPIAGPAQ
# modifications: biotinylated (BAP tag)
# notes: as for B12
# B22: KIAA1522 36-mer peptide (peptide)
# peptide: MAGGLNDIFEAQKIEWHEDTGGSSHHHHHHGSGSGSDSEVNQEAKPEVKPEVKPETHINLKVSDGSSEIFFKIKKTTPLRRLMEAFAKRQGKEMDSLTFLYDGIEIQADQTPEDLDMEDNDIIEAHREQIGGSGSGPPAPEEQDLSMADFPPPEEAFFSVASPEPAGPSGSP
# modifications: biotinylated (BAP tag)
# notes: Tested as a biotinylated BAP-6xHis-SUMO-peptide fusion; also called KIAAA1522
# B23: NUTM2E 36-mer peptide (peptide)
# peptide: MAGGLNDIFEAQKIEWHEDTGGSSHHHHHHGSGSGSDSEVNQEAKPEVKPEVKPETHINLKVSDGSSEIFFKIKKTTPLRRLMEAFAKRQGKEMDSLTFLYDGIEIQADQTPEDLDMEDNDIIEAHREQIGGSGSGVVPVMAAQVVGGTQACEGGWSQGLPLPPPPPPAAQL
# modifications: biotinylated (BAP tag)
# notes: as for B12
# B24: ABI1 a peptide (peptide)
# peptide: MAGGLNDIFEAQKIEWHEDTGGSSHHHHHHGSGSGSDSEVNQEAKPEVKPEVKPETHINLKVSDGSSEIFFKIKKTTPLRRLMEAFAKRQGKEMDSLTFLYDGIEIQADQTPEDLDMEDNDIIEAHREQIGGSGSGFDDFPPPPPPPPVDYED
# modifications: biotinylated (BAP tag)
# notes: as for B2
# Biological target: T1, ENAH EVH1 domain (monomeric, wild type) (human, UniProt Q03173 1-111 (mouse entry))
# T1 construct: ENAH residue numbers in the text count from the Met at position 25 of this entry; also called ENAH EVH1 WT; Mena EVH1 WT
# Test: BLI
# Description: (§1) All BLI experiments were performed with 2 replicates on an Octet Red96 instrument (ForteBio). […] The loaded tips were immersed in a solution of ENAH EVH1 domain at a relevant dilution series in BLI buffer at an orbital shake speed of 1000 rpm and run until the binding signal plateaued. ENAH-bound tips were subsequently placed into BLI buffer only for dissociation and run until the binding signal plateaued. K_D values were obtained through steady state analysis. […] The association phases were then fit to a one-phase binding model in Prism and the equilibrium steady-state binding signal values from that fit were plotted against ENAH concentration and fit to a single-site specific binding model in Prism to obtain dissociation constants. Errors reported are the standard deviation of two replicates.
# T1 sequence (Q03173 other isoform, or with tags, fused parts or gaps limits assumed): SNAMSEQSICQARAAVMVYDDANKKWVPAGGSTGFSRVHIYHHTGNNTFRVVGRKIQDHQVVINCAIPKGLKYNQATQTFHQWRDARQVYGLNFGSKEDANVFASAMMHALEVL
Binder,fold reduction in affinity relative to the LPP 36-mer [fold],fold decrease in affinity on truncation of the flank [fold],fold reduction in affinity against … [fold]
B1,~4,,
B2,,3,
B3,,,~4
B4,,2.5,

# Biological target: T2, ENAH EVH1 domain with Arg47 mutated to Ala (human, UniProt Q03173 1-111 (mouse entry))
# T2 construct: also called ENAH R47A; ENAH EVH1 R47A
# Test: BLI, steady state; SUMO-peptide immobilised, EVH1 monomer in solution
# Description: as §1
# T2 sequence (Q03173 other isoform, or with tags, fused parts or gaps limits assumed, stated change not applied): as the sequence (Q03173 other isoform, or with tags, fused parts or gaps limits assumed) above, with R50A counted along it
row,Binder,Kd [µM]
1,B1,124
2,B5,70
3,B6,99.1
4,B7,61.3
5,B8,51
6,B9,75.2
7,B10,54.2
8,B11,86.9

# Biological target: T1, ENAH EVH1 domain (monomeric, wild type)
# Test: as above
# Description: as §1
row,Binder,Kd [µM]
1,B1,15.8
2,B5,18.4
3,B6,48.7
4,B7,12.4
5,B8,24.4
6,B9,28.3
7,B10,6.66
8,B11,92.6

# Biological target: T1, ENAH EVH1 domain (monomeric, wild type)
# Test: as above
# Remark: another data set of the same source
# Description: as §1
row,Binder,Kd [µM]
1,B12,24.3
2,B13,23.9
3,B14,4.79
4,B15,50.4
5,B16,9.3
6,B17,13.6
7,B18,0.192
8,B19,21.2
9,B20,16
10,B21,52.1
11,B22,14
12,B23,33.9

# Biological target: T1, ENAH EVH1 domain (monomeric, wild type)
# Test: as above
# Remark: another data set of the same source
# Description: as §1
row,Binder,Kd [µM]
1,B24,5.21
2,B2,28.5
3,B3,114
4,B4,10.1

# Biological target: T2, ENAH EVH1 domain with Arg47 mutated to …
# Test: as above
# Remark: another data set of the same source
# Description: as §1
row,Binder,Kd [µM]
1,B14,54.5
2,B18,0.331

# Biological target: T1, ENAH EVH1 domain (monomeric, wild type)
# Test: as above
# Remark: another data set of the same source
# Description: as §1
row,Binder,Kd [µM]
1,B14,4.79
2,B18,0.192
